Measured values: the DeepSol protein solubility set

Test: soluble on expression in E. coli; label from the status in PepcDB or PDB records

| Sequence | soluble on expression in E. coli |
| --- | --- |
| MGSDKIHHHHHHMKNPNTVISSDYGPIIINLNDNAIGRQISQYGYWATDDINIINTLVNVQLDKFGQIMFYDVGANIGTHSLAIAKTHPDTVAIRAFEAQRQVFNMLCGTMAINGLSNVHCHHNAISEKIGDFIDIPIPDYNSANNFGSLELIPPKNSDNQGIIHSGKMESVKTLSIDSFNEKVDFIKMDIEGMEDKALLGAINTIEHHRPILFLEILKTDVNFVMTFLRERGYLGFQKSFDLIAIPIEYQLQVNGTNRVF | not soluble |
| MGSDKIHHHHHHMKPGFVDPVFDAQAVFRAALLATAYPGRVVPLDRTLTAPRPFSSATAALCLSLMDFETPAWLDNSLDCGELTAWLRFHCSLPLTETAGEARFAIVSDPANLPRLCELHPGDAEYPDRSTTLIIQVPSFTDGPTTTWTGPGVNGSIPVGIAGLPFWFWADWDLNSELYPRGIDVVFTSGNAVIGLPRTIKVEA | not soluble |
| MGSDKIHHHHHHMKPITVLVSVDSNSVLMGARHFLNYFRDLVKEHNLEDTVDVLETGSMGIYPEGVIVSVLPDGVFYVVRNELDVRRIFEEHILKGRRVLDLEIPESQIKGTVEVEKVAEETRIVLKNVGEIDPTRIEEYIARDGYFALAKALQMEPGEIIEEIKRSGLRGRGGAGFPTGLKWEFTYKASADQKYVLCNADEGEPGTFKDRLIMEGDPHSLIEGMIIAGYAVGATKGYIYIRGEYHSSIEILKKAVEQAYEYGFLGENILGSGFNFDLKIRLGAGAYVAGEETALIESIEGKPARPRLKPPYPPTFGLFGKPTVVNNVETFVNVPRIIMNGAEWFKKFGTESSPGTKVFSLVGNVVRKGIVEVPMGVTVRDLIFKFGGGIEGGRKLKVVQTGGSAGTFIGPDKLDVPLDFDSYAKYGVSLGSGVILVADETHCVVDLALTVMRFFEHESCGKCTPCREGTRMIVNILERISRGEGKKEDLDTLREIARNAGETSFCGLGQSIPVPLLSIVDNFEEEFKAHIGADKCPVGVCEFKKKKEKKKIGVRKP | not soluble |
| MGSDKIHHHHHHMKPRACVVVYPGSNCDRDAYHALEINGFEPSYVGLDDKLDDYELIILPGGFSYGDYLRPGAVAAREKIAFEIAKAAERGKLIMGICNGFQILIEMGLLKGALLQNSSGKFICKWVDLIVENNDTPFTNAFEKGEKIRIPIAHGFGRYVKIDDVNVVLRYVKDVNGSDERIAGVLNESGNVFGLMPHPERAVEELIGGEDGKKVFQSILNYLKR | not soluble |
| MGSDKIHHHHHHMKPRNESVILLHGLARTRGSMEKMEHALSAKGYQCVNLGYPSTQFDIETLAGEHIDKALSQCRGERVHFVTHSMGGILVRQYLSQHTLPALGRVVMLGPPNRGSEVVDSLKDFPGFKWINGPAGLQLGTEEESVPNRLGKAHFEVGVIAGSRSVNLLLSTLLPWPNDGKVSVARTHLEGMRDHISLAVTHPFMMNNPSVIAQTAYFLAHGRFQR | not soluble |
| MGSDKIHHHHHHMKQGIEFIKFNPTQNMTILVETNDPIGEYKHIAEKIMSYDSVYAEQVGFIEKPLNRQAAAHLEMAGGEFCGNACMALAALIASEKGLRPTELMEIVLEVSGTDNLVMCQVERTLDEFHCQVTMPLPKQIEQKIVKYDGSEMNLIIVRYQEFIHIVIEVDDFNKIVREKAQSLAKLLGVTLGTNLIGILLYKSNTSELAPLIFVPDLDSMIWERGCGSGTASLGAYLAWKNKKEIVAKIKQPGGTIQVIATCEEEKLTSLKIEGSVSIVARGKAFIDV | not soluble |
| MGSDKIHHHHHHMKQQYTATVVMATYNGEKNILEQLDSLKNQSKKIDEVLIWDDCSTDSTVKIIENFISENKLGETWHLQINTENLGWRKNFFNLLNAATKEIVFTCDQDDIWDASKIEVMCEAFANTDVKVLVSDYTELVEPGGLAEELKKIDSVKLPNQKAEQIIFNENNLFLRRPGCVYAIRKSFIANVNLYASEMENPVHDMAMWGSSLLSDGLYIVREELIRWRKHGQSSFKKEIDLAKKQNHFEERLNTLRRRLQRTEAAKNYLNNQPHVEEFEYKDKVLSNLIKELNMRVSLLERKKIIPILCAFFKYHHKFYFSTDIYHIMKYKIRK | not soluble |
| MGSDKIHHHHHHMKRENLHQPFEISFSELAESLLKEHEHTFFELVYILSGTGIQWINNNMFPYHDGHLFMITPGDTHSFEIHTTTKFVDIKFNDIYIHSSVFGAENIQRLEFILQHANHQPGCILRNKVDKLLVKPMIEAIIREYINRNLYSKEIITQIINTIIIVVARNIAMFLPEQVDECSEDKSLDILQYIQANIYKTGKIRAKDISQHFGISENYLGRYIKKHTNETMQQYILNYKLKLVENRLLHSQMRICEIVEELGFTDESHLNKFFKKYRGCSPSNFRKNNLK | not soluble |
| MGSDKIHHHHHHMKRRELLVLGGLSTIAAGMGRQWFQPVSAQAITPLPASDRPLDLRFIAVADTGTGARGQYDVAAAMERYRRANPYKLAVLAGDNIYNNGEIEKIQAVFERPYAPLLKSGVKFRAVLGNHDIRTNNGNDQVRYPGFNMTGRYYQFQEGPVAFFALDTNGNADWNKQLTWLDRALQASNAPWKVVFGHHPIYSSGFYGVNRTLLGRLVPLFKRHGVQLYISGHDHSYERTQPIDGTTYLIVGAGAGLRPVGRSSWTAQSASTLSFAGLEVYGNELRIQTFDKDSRLIDQGQIFA | not soluble |
| MGSDKIHHHHHHMKRRLGLKLYYRRRGHVKPSLLFVIQSHKGEFVKDRLEEYLNNLKIEKKPDSRESWDSYFMRIARMVSERSTCVHRKVGAVIVKDHRILATGYNQPPSKFPHCNEIGCIRDDLEINSGEHQEICYALHAEQNALMQAAKFGIAVNGATIYVTHKPCSICARLIVNAGIKRVVYEKDYPDPLTDFFFKFTGVESVRFVGDEM | not soluble |
| MGSDKIHHHHHHMKRTPLFEKHVELGAKMVDFAGWEMPLYYTSIFEEVMAVRKSVGMFDVSHMGEFLVKGPEAVSFIDFLITNDFSSLPDGKAIYSVMCNENGGIIDDLVVYKVSPDEALMVVNAANIEKDFNWIKSHSKNFDVEVSNISDTTALIAFQGPKAQETLQELVEDGLEEIAYYSFRKSIVAGVETLVSRTGYTGEDGFELMLEAKNAPKVWDALMNLLRKIDGRPAGLGARDVCRLEATYLLYGQDMDENTNPFEVGLSWVVKLNKDFVGKEALLKAKEKVERKLVALELSGKRIARKGYEVLKNGERVGEITSGNFSPTLGKSIALALVSKSVKIGDQLGVVFPGGKLVEALVVKKPFYRGSVRREV | not soluble |
| MGSDKIHHHHHHMKRTYESGDKMIHTRGKAEGLREKLATILSQDYKELAVQDLKVIGTGVQNIVFRGDSEKGALAFRVPWEREVENINEDLFNSRISLQKEAELSKYCHSKGISVPRIHGLHLSAELDFLISDCVYTDHMPISAHKIGELVSKLHSMPIDDLHYEQNIREPISKYIAERIVKRIEGFNTITNCGMKLPDTKTIEHILSTADHEKSLLHMDIRPANLIGYNGEVKAIVDWDNALIGHPLLELMRIAETNEVSWEEFKDGYKNDSIFNATSHIVSLFYRLDTAVMLANLFIAHLKIEDKGVFYKERVKAIHHEIYKSL | not soluble |
| MGSDKIHHHHHHMKSVCLKITSLISLASRITTGLSLMSVMLASPLAVAQMGKHDALLLHAARVFDGHRMRTNTSVQVVNGKVTQIGPRGSFAPDNAKVIDLGDATILPGFIELHAHLSFQHVPADTVLKHGITTIRDVGGPVHKPYGGNGTLRMLTSGPIITAPGGYPIPLTGEKNIATPVSTEKEARETVRNLIDAGAVVIKIALEPGGEPGAPWSCGHAHVHHHNHAAAGNHAHHAQPNHEPPNHEAANDAHSSHPHPNTGLGTAWPLLAERVVKAIVDEAHVNKRRVTAHIAEVKGAEIAINAGIDEWAHVPCDIIPEPLLKKAVSQGVRIVTTLDTLSKCPGVAHNTRVWREQGGELLYGAEIAHPDVPRGIDAQELMYMMQMGNMETLEVLRAATSKAGEHLGLPLLGTLLPGAPADVIAIKGDPTHNLKNLEYPDLVISGGEIVLNNFPAAF | not soluble |
| MGSDKIHHHHHHMKTCWQILEIESTTQIDIIRQAYLARLPLCHPETDPQGFKALRQAYEEALRLAVNPVEEADDEEKDATAEHEILRAFRTLLDSESDRFQPSAWQKFIQQLNTWNMEDVDQLRWPLCAIAIEARYLSLNCASLLAERLNWHSFNDSEGMDEEEREAFLEAIQAGDCFDFLSLLEYPVALQNQTVEYYFALERCCRYHPDYVTAFLAMEGPWFIPDDAKLHRKLLRWYSSVQTGMVELIPVAKQWQAEEPESEDARYYQCAQRLYCGEGESLLADLGAYWESYPSTQADNLLLQWSKRHCPDYFALLVMVIEARSMVDAQGQPLKYVPGESARTRLLWAEILHSGKLSPLGQSFIESLFFKRKAWAWWKSRVGSETEEDSPLLDLYRVAEQVVLEAFPKQEMLARLNTRLEGGDAHPLEAIITRMLLTKVKLEPEDEDVDEPTPENHEEKNDEGEKPQSITSIIKISLTVLVIGYALGKIAMLFS | not soluble |
| MGSDKIHHHHHHMKTDTEWLLCDFHVHTNMSDGHLPLGEVVDLFGKHGVDVVSITDHIVDRRTLEQRKRNGEPLGAITEDKFQDYLKRLWREQKRAWEEYGMILIPGVEITNNTDLYHIVAVDVKEYVDPSLPVEEIVEKLKEQNALVIAAHPDRKKQDEEHLSWYLWANMERFKDTFDAWEIANRDDLFNSVGVKKYRYVANSDFHELWHVYSWKTLVKSEKNIEAIKEAIRKNTDVAIYLMRKNRLSSLSDVI | soluble |
| MGSDKIHHHHHHMKTKMPEMLSFISEEAVSRKMTSEEIAAHFGYDKHHFSRKFKEINGFSVVEFLSSLKVEKAIIELNEEKRILDLQEHSGFESSGSFTNTFKKYTGSSPRKYKTEMNDIFYDMKRFENDNKDKSIAHFQEKNDSFCTVTIDVPDEFEKGIIFIGLFRTLIPNHMPISGLATKNLIGNQLKNIPSGDYYLLACAISQSNNILSYFNLSNSLRGKEDEKLSFPKCSGKHYAIKLREPIPEDPPILANVGKILISCLKNTI | not soluble |
| MGSDKIHHHHHHMKTLLGIIAGKAAQSILTKLGRGSTYPGRLALACDKDILKDLSKDYDIVVVTGTNGKTLTTALTVGILKEAFGEIITNPSGANMITGITSTFLAAKKGKSERQIAVLEIDEASLPRITTYLKPSLFVYTNIFRDQMDRYGEIYTTYQMIVDGARNAPKATILANGDSPIFSSKDIVNPVQYYGFDTAKHAPQLAHYNTEGILCPKCEHILQYRLNTYANLGDFVCLNCQFQRPTLDYQLTELTAITHQSSEFVIDGQNYKINVGGLYNIYNALAAVSVAEFFGVSPEKIKAGFNKSKAVFGRQETFTVGDKSCTLILIKNPVGASQALEMIQLADYPFSLSVLLNANYADGIDTSWIWDANFELITQMPITEINAGGVRHSEIARRLRVTGFDDTKIKQAEKLEQIIETIEKQEAKHAYILATYTAMLEFRSLLADRHVVEKEMI | not soluble |
| MGSDKIHHHHHHMKTQSQDRWFIWQLSEELEAKIRYREYGPPDSPFTPLLFIHGYGGMIEHWNDNIPSFDDRYRIYAMDLIGFGQSGKPNVRYSLALFAAQIKAFMHLKKLEKVTLVGHSMGAASSIIYAHHNPDSVRALVLANPSGLYGDSMDGVAKIFFGLVGSPLIGEMLFAAFANPVGVSQSLTPTYYNQKKVDLNLINQFSRPLQDRGAIFSYLSPSKRPHDFMLDGLKPCNYKGDAWLLWGAEDTALPPHKIIPEFQELLPQAGAYIIPKAGHCIHHDAHETFNNRLAQLLQRLE | not soluble |
| MGSDKIHHHHHHMKTRDKIIQASIELFNEQGERNVTTNHIAAHLAISPGNLYYHFRNKEDIILSIYEEYARSLLLETLPKVSSEVKPLDSLILYMDSVFQTTMKFRFFYSNLPVLLDKNPILREKYVEVQQSISERVSQLLISLRAADYIDFNDDELADIVSILRLINTFWVSFHQTQTIVNEVNDSVFYQGVLKILVILRPYTKAHAISELNHARDVYQQRYREEAETA | not soluble |
